Data: patent US20240358762A1 (UNIVERSITY OF PITTSBURGH OF THE COMMONWEALTH SYSTEM OF …, published 2024)

T1: human PRTG polypeptide (human, UniProt Q2VWP7 36-952, limits assumed)
T1 construct: also called protogenin
T1 sequence (looked up): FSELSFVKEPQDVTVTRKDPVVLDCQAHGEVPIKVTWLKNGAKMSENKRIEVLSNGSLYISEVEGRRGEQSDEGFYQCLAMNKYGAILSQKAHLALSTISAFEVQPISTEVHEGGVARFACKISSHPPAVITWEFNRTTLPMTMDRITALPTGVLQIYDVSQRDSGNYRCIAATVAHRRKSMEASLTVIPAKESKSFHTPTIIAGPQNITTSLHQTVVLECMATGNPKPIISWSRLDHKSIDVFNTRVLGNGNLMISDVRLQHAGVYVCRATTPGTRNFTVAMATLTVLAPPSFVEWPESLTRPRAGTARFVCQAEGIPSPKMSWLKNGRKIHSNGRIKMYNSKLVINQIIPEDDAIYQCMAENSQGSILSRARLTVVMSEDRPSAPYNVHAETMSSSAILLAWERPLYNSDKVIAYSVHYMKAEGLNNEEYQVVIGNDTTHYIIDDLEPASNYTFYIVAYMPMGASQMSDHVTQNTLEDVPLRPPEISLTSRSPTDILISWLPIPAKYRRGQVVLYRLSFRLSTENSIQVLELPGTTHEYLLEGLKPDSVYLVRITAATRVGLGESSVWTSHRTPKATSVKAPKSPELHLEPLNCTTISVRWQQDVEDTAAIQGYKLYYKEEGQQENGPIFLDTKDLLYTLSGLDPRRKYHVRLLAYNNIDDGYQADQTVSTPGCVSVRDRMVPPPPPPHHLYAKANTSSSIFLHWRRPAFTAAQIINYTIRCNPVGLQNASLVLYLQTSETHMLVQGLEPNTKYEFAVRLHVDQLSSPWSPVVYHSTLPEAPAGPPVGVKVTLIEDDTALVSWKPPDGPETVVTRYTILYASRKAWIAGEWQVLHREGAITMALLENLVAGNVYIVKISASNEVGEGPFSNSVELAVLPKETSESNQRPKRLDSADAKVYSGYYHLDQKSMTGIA

B1: VH domain Clone #1 (other)
VH: EVQLVESGGGLVQPGGSLRLSCKASGFTVSSNYMHWVRQAPGKGLEWIGGINHSGRTNYKSSLKSRVTISRDNSKNTLYLQMNSLRAEDTAVYYCARLPPSRDGYNYADYWGQGTLVTVSS
notes: also called #1 (VH domain)
B2: VH domain Clone #2 (other)
VH: EVQLVESGGGLVQPGGSLRLSCKGSGFTFSNFAMNWVRQAPGKGLEWVSAISGSGGSTYYADSVKGRFTISRDNSKNTLYLQMNSLRAEDTALYYCARGPDYYGSGSHGWFDPWGQGTLVTVSS
notes: also called #2 (VH domain)
B3: VH domain Clone #3 (other)
VH: EVQLVESGGGLVQPGGSLRLSCAASYFDFDSYEMSWVRQAPGKALEWLGRIYTSGTTNYNPSLKSRVTISRDNSKNTLYLQMNSLRAEDTATYYCAMTGPYYDSSGYYPARHAEYFQHWGQGTLVTVSS
notes: also called #3 (VH domain)
B4: VH domain Clone #4 (other)
VH: EVQLVESGGGLVQPGGSLRLSCAASGSAFGSHWMHWVRQAPGKGLEWVSSISSGGSSIYYADSVKGRFTISRDNSKNTLYLQMNSLRAEDTAVYYCARVRRDDDSNYRPFDVWGQGTMVTVSS
notes: also called #4 (VH domain)
B5: VH domain Clone #5 (other)
VH: EVQLVESGGGLVQPGGSLRLSCKGSGFNFGDYAMHWVRQAPGKALEWIGYIYNTGSTKYNPSLKSLVTISRDNSKNTLYLQMNSLRAEDTATYYCVSTVTNGVEYFQHWGQGTLVTVSS
notes: also called #5 (VH domain)
B6: VH domain Clone #6 (other)
VH: EVQLVESGGGLVQPGGSLRLSCAASGFTFSNYGMSWVRQAPGQRLEWIGWIDTKTGNPRYGQGFTGRFTISRDNSKNTLYLQMNSLRAEDTATYYCVSTVPNGVEYFQHWGQGTLVTVSS
notes: also called #6 (VH domain)
B7: VH domain Clone #7 (other)
VH: EVQLVESGGGLVQPGGSLRLSCAASGFTFSNAWMSWVRQAPGKGLEWIGRIYSSGSTNYNPSLKSRVTISRDNSKNTLYLQMNSLRAEDTALYYCASTYRSSSGEYFQHWGQGTLVTVSSS
notes: also called #7 (VH domain)
B8: VH domain Clone #8 (other)
VH: EVQLVESGGGLVQPGGSLRLSCKGSGFTFSNYWMHWVRQAPGKGLEWVSAISGSGGSTYYADSVKGRFTISRDNSKNTLYLQMNSLRAEDTATYYCATLCRGDSCYSPFDPWGQGTLVTVSSS
notes: also called #8 (VH domain)

biological target: T1, human PRTG polypeptide; assay: ELISA and SPR (Blitz) as stated; which method gave the EC50 is not said
Procedure: Binding affinity and specificity to a human PRTG polypeptide were tested using an ELISA and SPR (Blitz). […] Clone #1 was determined to bind to the human PRTG fibronectin type-III 1 domain; clone #2 was determined to bind to the human PRTG fibronectin type-III 3 domain; and clones #3, #4, #5, #6, #7, and #8 were determined to bind to the human PRTG fibronectin type-III 5 domain. Clone #1 binding to the human PRTG fibronectin type-III 1 domain was determined by ELISA. Clone #2 binding was based on the panning being performed using a PRTG fibronectin type-III 3 domain; and clones #3, #4, #5, #6, #7, and #8 binding was based on the panning being performed using a PRTG fibronectin type-III 5 domain.

Going from B1 to B2, the EC50 rises from 2.8 nM to 30 nM (11-fold).

B3 and B4 are within 1.5-fold of each other in EC50: 0.75 nM for the first, 0.9 nM for the second.

Going from B5 to B6, the EC50 rises from 1.35 nM to 6.25 nM (4.6-fold).

Going from B7 to B8, the EC50 rises from 0.29 nM to 0.81 nM (2.8-fold).
